Experimental findings from paper PMC10617981 (2023) are described below.

Usually Kd stands for the free concentration of one partner at which half of the binding sites on the other are occupied at equilibrium, for simple one-to-one binding.

The target of the assay is T1, SND1 recombinant protein (Origene, TP300059) (human, UniProt Q7KZF4 1-910, site-specific cysteine labeling with the RED-MALEIMIDE 2nd Generation kit (fluorescent dye)).
T1 chain: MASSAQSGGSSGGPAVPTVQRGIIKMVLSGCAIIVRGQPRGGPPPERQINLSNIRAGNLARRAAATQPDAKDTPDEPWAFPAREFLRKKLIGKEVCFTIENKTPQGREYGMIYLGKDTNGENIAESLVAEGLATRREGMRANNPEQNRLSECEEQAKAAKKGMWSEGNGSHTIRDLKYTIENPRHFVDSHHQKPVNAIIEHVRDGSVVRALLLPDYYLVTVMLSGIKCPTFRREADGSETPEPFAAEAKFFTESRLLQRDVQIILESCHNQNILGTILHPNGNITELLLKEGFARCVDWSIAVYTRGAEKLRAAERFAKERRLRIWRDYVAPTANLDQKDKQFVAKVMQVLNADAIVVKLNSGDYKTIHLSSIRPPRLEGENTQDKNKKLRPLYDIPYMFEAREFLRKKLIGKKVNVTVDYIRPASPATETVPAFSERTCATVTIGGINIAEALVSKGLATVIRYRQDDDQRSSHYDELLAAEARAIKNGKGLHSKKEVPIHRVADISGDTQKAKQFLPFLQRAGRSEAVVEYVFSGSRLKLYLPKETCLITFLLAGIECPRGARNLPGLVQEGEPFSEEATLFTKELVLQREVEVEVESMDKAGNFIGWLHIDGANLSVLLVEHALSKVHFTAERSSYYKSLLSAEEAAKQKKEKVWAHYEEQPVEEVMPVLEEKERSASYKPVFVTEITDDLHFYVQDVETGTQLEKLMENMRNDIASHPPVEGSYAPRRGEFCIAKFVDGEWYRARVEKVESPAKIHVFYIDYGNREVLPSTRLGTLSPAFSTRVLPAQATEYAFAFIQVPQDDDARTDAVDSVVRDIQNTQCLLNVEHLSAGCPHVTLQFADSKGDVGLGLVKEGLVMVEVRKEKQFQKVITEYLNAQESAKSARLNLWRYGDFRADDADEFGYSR
Briefly: MST.

B1: NSP9 recombinant protein (Abcam, ab289608) (natural protein)
chain: NNELSPVALRQMSCAAGTTQTACTDDNALAYYNTTKGGRFVLALLSDLQDLKWARFPKSDGTGTIYTELEPPCRFVTDTPKGPKVKYLYFIKGLNNLNRGMVLGSLAATVRLQ
For the molecule B1, the Kd worked out at 8.8 µM.
